Assay results published in the nanobody polyreactivity screen of Harvey et al. (2022).

Assay: yeast display, Sf9 membrane polyspecificity reagent, FACS + sequencing; frameworks hold sequencing errors
How it was run: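 Galactose-induced (36–48 hours) yeast carrying a synthetic nanobody display library were exposed to 10% biotinylated, detergent-solubilized Sf9 membrane reagent at 4 °C for 1 hour. FACS followed streptavidin microbead enrichment, using low and high (top ~1%) gates for expression (anti-HA) and reagent binding (streptavidin). Colony PCR, MiSeq 2 × 250 sequencing and CDR-length filtering followed. Labels for polyreactivity reflect the gate of origin.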

Sequence: QVQLVESGGGLVQAGGSLRLSCAASGRIFIVYAMGRYRQAPGKERELVAAISWNGGRTYYADSVKGRFTISRDNAKNTVYLQMNSLKPEDTAVYYCNAVALYPYTTYDYWGQGTQVTVSS
- polyreactivity (PSR sort gate): high polyreactivity

Sequence: QVQLVESGGGLVQAGGSLRLSCAASGRIFIVYAMGWYRQAPGKERELVATISWSGGSTYYADSVKGRFTISRDNAKNTVYLQMTSLKPEDTAVYYCAADYRWVDSDSSLFYWYDYWGQGTQVTVSS
- polyreactivity (PSR sort gate): high polyreactivity

Sequence: QVQLVESGGGLVQAGGSLRLSCAASGRIFIWYAMGWYRQAPGKDRELVAAISTDGSPYYADSVKGRFTISRDNAKNTVYLQMNSLKPEDTAVYYCAAVPGYTHLWGGPFDYWGQGTQVTVSS
- polyreactivity (PSR sort gate): low polyreactivity

Sequence: QVQLVESGGGLVQAGGSLRLSCAASGRIFIYAMGWYRQAPGKERELVAAISWSGGSTYYADSVKGRFTISRDNAKNTVYLQMNSLKPEDTAVYYCAADYEGWGYDYRGDYWGQGSQVTVSS
- polyreactivity (PSR sort gate): low polyreactivity

Sequence: QVQLVESGGGLVQAGGSLRLSCAASGRIFIYKAMGWYRQAPGKERELVAAISSSGTSTYYADSVKGRFTISRDNAKNTVYLQKNSLKPEDTAVYYCNAVYNYRWYSQGYYWGQGTQVTVSS
- polyreactivity (PSR sort gate): high polyreactivity

Sequence: QVQLVESGGGLVQAGGSLRLSCAASGRIFIYNAMGWYRQAPGKEREFVAAISRTGGNTYYADSVKGRFTISRDNAKNTVYLQMNSLKPEDTAVYYCATKRKWTYLSYDYWGQGTQVTVSS
- polyreactivity (PSR sort gate): low polyreactivity

Sequence: QVQLVESGGGLVQAGGSLRLSCAASGRIFIYNAMGWYRQAPGKERELVAAINRSGVSTHYADSVKGRFTISRDHAKNTVYLQMNSLKPEDTAVYYCARTVYGARSYDYWGQGTQVTVSS
- polyreactivity (PSR sort gate): low polyreactivity

Sequence: QVQLVESGGGLVQAGGSLRLSCAASGRIFIYNAMGWYTQAPGKERELVAAINRSGVSTHYADSVKGRFTISRDNAKNSVYLQMNSLKPEDTAVYYCARTVYGARSYDYWGQGTQVTVSS
- polyreactivity (PSR sort gate): low polyreactivity

Sequence: QVQLVESGGGLVQAGGSLRLSCAASGRIFKFNAMGWYRQAPGKEMELVAATWSGGRTYYSDSVKGRFTISRDNAKYTVYLQMNCLKPEDTAVYYCNAADSSWYVLYGSYYRSGLDYWGQGTQVTVSS
- polyreactivity (PSR sort gate): low polyreactivity

Sequence: QVQLVESGGGLVQAGGSLRLSCAASGRIFKGYSMGGYRQAPGTETELVASIRTGGTTNYADSVKGRFTISRDNAKNTVYLQMNSLKPEDTAVYYCNRGYYSYYGRYYYWGQGTQVTVSS
- polyreactivity (PSR sort gate): high polyreactivity

Sequence: QVQLVESGGGLVQAGGSLRLSCAASGRIFKINAMGWYRPAPGKERELVAGISGSGSDTYYADSVKGRFTISRDNAKNTVYLQMNSLKPEDTAVYYCAATVVQYYDRDYWGQGTQVTVSS
- polyreactivity (PSR sort gate): low polyreactivity

Sequence: QVQLVESGGGLVQAGGSLRLSCAASGRIFKKYAMGWYRQAPGKERELVATISSGGSTYYADSVKGRFTISRDNAKNTVYLQMNSLKPEDTAVYYCARREYVRRDYFVTTYDYWGQGTQVTVSS
- polyreactivity (PSR sort gate): low polyreactivity

Sequence: QVQLVESGGGLVQAGGSLRLSCAASGRIFKLNDMGWYRQAPGKERELVAAITRGTGSTYADSVKGRFTISRDNAMNTVYLQMNSLKPEDTAVYDCATRYSYRRLSFPRPDEMEYWGQGTQVTVSS
- polyreactivity (PSR sort gate): low polyreactivity

Sequence: QVQLVESGGGLVQAGGSLRLSCAASGRIFKPNAMGGSRQAPGKEREFVARITRNTGSTYYADSVKGRFTISRDNAKNTVYLQMNSLKPEDTAVYYCAARFYRRNRFNYWGQGTLVTVSS
- polyreactivity (PSR sort gate): high polyreactivity

Sequence: QVQLVESGGGLVQAGGSLRLSCAASGRIFKQYAMGWYRQAPGKEREFVAAISSRGTRTYYADSVKGRFTISRDNAKNTVYLQMISLKPEDTAVYYCNAVQAQAAYEYWGQGTQVTVSS
- polyreactivity (PSR sort gate): high polyreactivity

Sequence: QVQLVESGGGLVQAGGSLRLSCAASGRIFKRNAMGWYRQAPGKERELVAAISYSGGSTYYADSVKGRFTISRDNAKQTVYLQMNSLKPEDTAVYYCAVDRYPTGITKYDYWGQGTLVTVSS
- polyreactivity (PSR sort gate): high polyreactivity

Sequence: QVQLVESGGGLVQAGGSLRLSCAASGRIFKRNAMGWYRQAPGKERELVATISGSGGSTYYADSVKGRFTISRDNAKNTVYIQMNRLQPEDTAVYYCSATGFFARLSTIYYYWGQGTQVTVTS
- polyreactivity (PSR sort gate): high polyreactivity

Sequence: QVQLVESGGGLVQAGGSLRLSCAASGRIFKRYAMGWYRQAPGKERELVAAIRTSDGITYYADSVKGRFTISRDNAKNTVYLQMNSLKPEDTAVYYCNADLSKAERWGQGTQVTVSS
- polyreactivity (PSR sort gate): low polyreactivity

Sequence: QVQLVESGGGLVQAGGSLRLSCAASGRIFKRYAMGWYRQAPGKERELVAAITRGGSTNYADSVKGRFTISRDNAKNSVYLQMYSLKPEYTAVYYCAATTSRPYRSRYYYWGQGTQVTVSS
- polyreactivity (PSR sort gate): high polyreactivity

Sequence: QVQLVESGGGLVQAGGSLRLSCAASGRIFKRYTLGWYRPAPAKERELVAAITKRADRTNYADSVKGRFTISRDNAKNTVYLQMNSLKPEDTAVYDCNAEGQNDHPSNGYISYKYDYWGQGTQVTVSS
- polyreactivity (PSR sort gate): low polyreactivity

Sequence: QVQLVESGGGLVQAGGSLRLSCAASGRIFKRYVMGWYRQAPGKERELVSAISVRGASTYYADSVKGRFTISRDNAKNTVYLQMNSLKPEDTAVYYCATAGYRLLDYWGQGTQVTVSS
- polyreactivity (PSR sort gate): high polyreactivity

Sequence: QVQLVESGGGLVQAGGSLRLSCAASGRIFKSYAMGGYRHAPGKERELVAAISSGDDTYYADSVKGRFTISRDNAKNTVYLQMNSLKQEDTAVYYCAADYWGWIYLYGDYLVDYWGQGTQVTVSS
- polyreactivity (PSR sort gate): low polyreactivity

Sequence: QVQLVESGGGLVQAGGSLRLSCAASGRIFKSYAMGWYRQAPGKERELVAAISRSGGRTYYADSVKGRFTISRDNAKNTVYLQMNSLKPEDTAVYYCAATTFVAPYLGQGTQVTVSS
- polyreactivity (PSR sort gate): low polyreactivity

Sequence: QVQLVESGGGLVQAGGSLRLSCAASGRIFKSYAMGWYRQAPGKERELVAAISSGDDTYYADSVKGRFTISRDNAKNTVYLQMNSLKPEDTAVYYCAADYWGWLYLYGDYLVDYWGQGTQVTVSS
- polyreactivity (PSR sort gate): low polyreactivity

Sequence: QVQLVESGGGLVQAGGSLRLSCAASGRIFKSYAMGWYRQAPGKERELVAGITSGGGTYYADSLKGRFTISRDNAKTTVYLQMNSLKPEDTPVYYCATRTYRESTYDYWGQGTQVTVSS
- polyreactivity (PSR sort gate): high polyreactivity

Sequence: QVQLVESGGGLVQAGGSLRLSCAASGRIFKSYAMGWYRQAPGKERELVASITWSGGRTYYADSVKGRFTISRDNAKNTVYLQMNSLIPEDTAVYYCAARTYSYGSILKYYYWGQGTQVTVSS
- polyreactivity (PSR sort gate): high polyreactivity

Sequence: QVQLVESGGGLVQAGGSLRLSCAASGRIFKTYAMGWYRPAPGKERELVAAITASGGRTYYADSVKGRFTISRDNAKNTVYLQMNSLKPEDTAVYYCAKRPSYYARNSAYAYLSYGYWGQGTQVTVSS
- polyreactivity (PSR sort gate): low polyreactivity

Sequence: QVQLVESGGGLVQAGGSLRLSCAASGRIFKVNTMGWYRQAPGKVRELVASIRGGGSTNYADSVKGRFTISRDNAKNTVYLQMNSLKPEDTAVYYCAAGTSKPTPIYGYWGQGTQVTGSS
- polyreactivity (PSR sort gate): low polyreactivity

Sequence: QVQLVESGGGLVQAGGSLRLSCAASGRIFKVYAMGWYRQAPGKERELVATISRGGSTYYADSVKGRFTISRDNAKNTVYLQMNSLKPEDTAVYYCAKQRERYYWFGAWSYDYWGQGTQVTVSS
- polyreactivity (PSR sort gate): low polyreactivity

Sequence: QVQLVESGGGLVQAGGSLRLSCAASGRIFKVYAMGWYRQAPGKERELVAVITGGGSTNYADSVKGRFTISRDNAKNTVYLQMNSLKPEDTAVYYCATEGYGHGGETDGGVYSDLGYWGQGTQVTVSS
- polyreactivity (PSR sort gate): low polyreactivity

Sequence: QVQLVESGGGLVQAGGSLRLSCAASGRIFKWNAMGWYRQAPGKERELVAAIRWSGTSTYADSVKGRFTISRDNAKNTVYLQMNSLKPEDTAVYYCAASKRYTVGVRAFGKHDYWGQGTQVTVSS
- polyreactivity (PSR sort gate): low polyreactivity

Sequence: QVQLVESGGGLVQAGGSLRLSCAASGRIFKWNAMGWYRQAPGKERELVAAITYRDDTTYYADSVKGRFTISRDNAKNTVYLQMNSLKPEDTAVYYCNAAWRPCRPFRGFTEGEYDYWGQGTQVTVSS
- polyreactivity (PSR sort gate): low polyreactivity

Sequence: QVQLVESGGGLVQAGGSLRLSCAASGRIFKWYAMGWYRQAPGKERELVAAITSGGGSTYYADSVKGRFTISRDNAKNTVYLQMNSLKPEDTAVYYCAVKGYRRWGYDYWGQGTQVTVSS
- polyreactivity (PSR sort gate): high polyreactivity

Sequence: QVQLVESGGGLVQAGGSLRLSCAASGRIFKYNAMGWYRQAPGKERELLAAITRGGSTNYADSVKGRFTISRDNAKNTVYLQMNSLKPEDTAVYYCAALRSRYGRDMDYWGQGTQVTVSS
- polyreactivity (PSR sort gate): high polyreactivity

Sequence: QVQLVESGGGLVQAGGSLRLSCAASGRIFKYYAMGGYRQAPGKERELVAAISGSGGSTFYADSVKGRFTISRDNAKNTVYLQMNSLKPEDSALYYCNADEVVWGYNYWGQVTQVTVSS
- polyreactivity (PSR sort gate): low polyreactivity

Sequence: QVQLVESGGGLVQAGGSLRLSCAASGRIFKYYAMGWSRQAPGKERELVPAINRDGGRTYYADSVKGRFTISRDNAKNTVYLQMNSLTPEETAVYYCAASYGYVYTTSLDYWGQGTQVTVSS
- polyreactivity (PSR sort gate): low polyreactivity

Sequence: QVQLVESGGGLVQAGGSLRLSCAASGRIFLFYAMGWYRTAPGKERELVAGIRSGGSTNYADSVKGRFTISRDNAKNTVYLQMNSLKQEDTAVYYSAAASYFVYPRLEGYWGQGTQVTVSS
- polyreactivity (PSR sort gate): low polyreactivity

Sequence: QVQLVESGGGLVQAGGSLRLSCAASGRIFLGNALGWYRQPPGNERELVAAITYSGRSTYYADSVKGRFTISRDHAKNTVYLQMNSLKPEDTAVYFCAARQYWTTDLPFQRYYYWGQGTQVTVSS
- polyreactivity (PSR sort gate): low polyreactivity

Sequence: QVQLVESGGGLVQAGGSLRLSCAASGRIFLGNAMGWYRQAPGKERDLVAAITNGGGSTYYADSVKGRFTISRDNAKNTVYLQMNSLKPEDTAVYYCARGYKKSVQRFEYWGQGTQVTVSS
- polyreactivity (PSR sort gate): high polyreactivity

Sequence: QVQLVESGGGLVQAGGSLRLSCAASGRIFLGYAMGWYRQAPGKERELVAAISAGGGSTYYADSVKGRFTISRDTAKNTVYLLMNSLKPEDTAVYYCAARRPHIPVKTYDYWGQGTQVTVSS
- polyreactivity (PSR sort gate): high polyreactivity

Sequence: QVQLVESGGGLVQAGGSLRLSCAASGRIFLGYTMGWYIQAPGKERELVAAISYTGGSTYYADSVKGRFTISRDNAKNSVYLQMNSLKPEDTAVYYCAAGTRFSYYWGQGTQLTVSS
- polyreactivity (PSR sort gate): high polyreactivity

Sequence: QVQLVESGGGLVQAGGSLRLSCAASGRIFLINAMGWYRQAPGKERELVAAITGGGGSTYYADSVKGRFTISRDNAKNTVYLQMNSLKPEDTAVYYCAARGTAERDYWGQGTQVTVSS
- polyreactivity (PSR sort gate): high polyreactivity

Sequence: QVQLVESGGGLVQAGGSLRLSCAASGRIFLKYAMGWYRQAPGKERELVAAISSSGGSTYYADSVKGRFTISRDNAMNTVYLQMNSLKPEDTAVYYCNALYKRGSSYFIGDGYWGQGTQVTVSS
- polyreactivity (PSR sort gate): high polyreactivity
